Test results as given in patent publication US20250170263A1 (AbbVie / Abbott, published 2025).
Each block holds one binder with its values, some of them ahead of it.

What was measured:
[1] = target: T1, wt EGFR overexpressed on the surface of A431 (A-431, human epidermoid carcinoma) cells (human, UniProt P00533 25-1210); test: cell-based or functional assay
[2] = target: T1, wt EGFR overexpressed on the surface of …; test: cell-based or functional assay; remark: listed apart in the source
[3] = target: mutEGFR on NCI-H1650 (non-small cell lung cancer) cells (human); test: cell-based or functional assay
[4] = target: T2, wild-type EGFR extra-cellular domain (ECD), EGFR (1-645)-LESRGPF-Myc-NMHTG-6His (human, UniProt P00533 25-645); test: SPR, Biacore T200, ADC captured by anti-Fc, EGFR ECD as analyte
T2 construct: Recombinant soluble ECD secreted from HEK293 cells; also called hEGFR WT; EGFR(h)(1-645); not shown: Myc tag
Protocol: (§1) Binding kinetics for AM2 and AM2-AAA for recombinant soluble EGFR extracellular domains (ECDs) were determined by surface plasmon resonance-based measurements made on a Biacore T200 instrument (GE Healthcare) at 25° C. using an anti-Fc capture assay approach. Recombinant soluble ECDs for the three isoforms of EGFR were expressed from transiently transfected HEK293 cells as secreted proteins with a C-terminal myc and histidine tag, and purified by Ni-IMAC (immobilized metal affinity chromatography) and SEC. […]
(§2) Chip preparation and binding kinetic measurements were made in the assay buffer HBS-EP+ (10 mM Hepes, pH 7.4, 150 mM NaCl, 3 mM EDTA, 0.05% Tween 20). […] For binding kinetics measurements each assay cycle consisted of the following steps: (1) capture of test antibody on test surface only; (2) analyte injection (EGFR ECD or buffer only) over both reference and test surface (240 μL at 80 μl/min), after which the dissociation was monitored for 900 seconds at 80 μl/min; (3) regeneration of the capture surface by 10 mM Glycine-HCl, pH 1.5 injections over both reference and test surface. […]

[5] = target: T3, EGFRvIII (hEGFR de2-7) [EGFR(H)(1-29)-G-(298-645)], EGFR(h)(1-29)-G-(298-645)-LESRGPF-Myc-NMHTG-6His (human, UniProt P00533 298-645); test: SPR, Biacore T200, 25 C, anti-Fc capture of ADC, EGFR ECD as analyte, 1:1 model
T3 construct: Recombinant soluble ECD secreted from HEK293 cells; not shown: Myc tag
Protocol: (§3) Binding kinetics for AM2 and AM2-AAA for recombinant soluble EGFR extracellular domains (ECDs) were determined by surface plasmon resonance-based measurements made on a Biacore T200 instrument (GE Healthcare) at 25° C. using an anti-Fc capture assay approach. Recombinant soluble ECDs for the three isoforms of EGFR were expressed from transiently transfected HEK293 cells as secreted proteins with a C-terminal myc and histidine tag, and purified by Ni-IMAC (immobilized metal affinity chromatography) and SEC. In particular, the EGFR ECD tested included amino acids 1-645 of EGFR fused to a myc and histidine tag [(EGFR (1-645)-LESRGPF-Myc-NMHTG-6His (“LESRGPF” (SEQ ID NO: 27))]. The EGFRvIII variant was also fused to a myc and histidine tag (EGFR(h)(1-29)-G-(298-645)-LESRGPF-Myc-NMHTG-6His), as was the ECD EGFR 1-525 [EGFR1(h)(1-525)]-LESRGPF-Myc-NMHTG-6His (“LESRGPF” (SEQ ID NO: 28))]. All ECDs were expressed with the signal sequence […] which was cleaved during secretion.
(§4) Chip preparation and binding kinetic measurements were made in the assay buffer HBS-EP+ (10 mM Hepes, pH 7.4, 150 mM NaCl, 3 mM EDTA, 0.05% Tween 20). For anti-Fc capture chip preparation, approximately 2000 RU of goat anti-human IgG Fc polyclonal antibody (Thermo Fisher Scientific Inc., cat. 31125), diluted to 25 μg/mL in 10 mM sodium acetate (pH 4.5) was directly immobilized across a CM5 biosensor chip using a standard amine coupling kit according to manufacturer's instructions and procedures (GE Healthcare). Unreacted moieties on the biosensor surface were blocked with ethanolamine. For binding kinetics measurements each assay cycle consisted of the following steps: (1) capture of test antibody on test surface only; (2) analyte injection (EGFR ECD or buffer only) over both reference and test surface (240 μL at 80 μl/min), after which the dissociation was monitored for 900 seconds at 80 μl/min; (3) regeneration of the capture surface by 10 mM Glycine-HCl, pH 1.5 injections over both reference and test surface.
(§5) For kinetic determinations, analytes were randomized 3-fold dilution series from 3 uM top dose. During the assay, all measurements were referenced against the capture surface alone (i.e., with no captured test antibody) and buffer-only injections were used for secondary referencing.

[6] = target: T4, truncated wild-type EGFR 1-525, [EGFR1(h)(1-525)]-LESRGPF-Myc-NMHTG-6His (human, UniProt P00533 25-525); test: as above
T4 construct: Recombinant soluble truncated ECD secreted from HEK293 cells; also called EGFRs1-501; ECD EGFR 1-525; not shown: Myc tag
Protocol: as §3, §4, §5

[7] = target: T1, wt EGFR overexpressed on the surface of …; test: FACS on A-431 cells, 1 h at 4 C, AlexaFluor 488 secondary antibody, geometric mean fluorescence
Protocol: To assay binding of AM2-AAA to cell surface overexpressed wt EGFR and to mutant forms of EGFR including the activating mutations found in NSCLC (mutEGFR), tumor cells overexpressing wt EGFR (A431) and mutEGFR (NCI-H1650) were assessed by fluorescence activated cell sorting (FACS).
Cells were harvested from flasks when at approximately 1.5×10⁶ cells/mL. Cells were washed once in PBS/1% FBS (FACS buffer) then resuspended at 2.5×10⁶ cells/mL in FACS buffer. 50 μL of cells were added to a round bottom 96-well plate. 50 μL of a 2× concentration of mAb/ADC (final concentrations are indicated in the figures) was added to wells and the plate was incubated at 4° C. for one hour. The cells were washed twice in FACS buffer and resuspended in 50 μL of a 1:100 dilution of secondary Ab (AlexaFluor 488, Invitrogen, 11013) diluted in FACS buffer. The plate was incubated at 4° C. for one hour and washed twice with FACS buffer. Cells were resuspended in 100 μL of PBS/1% formaldehyde and analyzed on a Becton Dickinson FACSCanto II flow cytometer. Data was analyzed using WinList flow cytometry analysis software.

[8] = target: T2, wild-type EGFR extra-cellular domain …; test: SPR, Biacore T200, antibody captured by anti-Fc, EGFR ECD as analyte
Protocol: as §1, §2

[9] = target: T3, EGFRvIII (hEGFR de2-7) …; test: SPR, Biacore T200, 25 C, anti-Fc capture of antibody, EGFR ECD as analyte, 1:1 model
Protocol: as §3, §4, §5

[10] = target: T4, truncated wild-type EGFR 1-525, …; test: as above
Protocol: as §3, §4, §5

IC50 (read off the curve), % Bim bound to BCL-xl in A-431 cells [1]: ~3 nM
EC50 (read off the curve), caspase 3/7 activity fold change in A431 cells [2]: ~7 nM
IC50 (read off the curve), % Bim bound to BCL-xl in NCI-H1650 cells [3]: ~20 nM
binding result [4]: no binding (tested: 3 µM top dose)
Kd [5]: 4.9 nM
koff [5]: 0.00017 s⁻¹
kon [5]: 35000 M⁻¹ s⁻¹
Kd [6]: 400 nM
koff [6]: 0.0012 s⁻¹
kon [6]: 2900 M⁻¹ s⁻¹
EC50 (read off the curve) [7]: ~100 nM
B1: AM2-AAA ADC (antibody, human IgG1, kappa, L234A L235A, DAR 2, V domains shown)
VH: EVQLQESGPGLVKPSQTLSLTCTVSGYSISNDFAWNWIRQPPGKGLEWMGYISYKGNTRYQPSLKSRITISRDTSKNQFFLKLNSVTAADTATYYCVTASRGFPWWGQGTLVTVSS
VL: DIQMTQSPSSMSVSVGDRVTITCHSSQDINSNIGWLQQKPGKSFKGLIYHGTNLDDGVPSRFSGSGSGTDYTLTISSLQPEDFATYYCVQYAQFPWTFGGGTKLEIKR
modifications: AAA synthon (Bcl-xL inhibitor drug-linker) conjugated through C220 of the heavy chain (i.e., C219 of SEQ ID NO: 1); average DAR 2
notes: Antibody-drug conjugate: the AM2 antibody conjugated to the AAA synthon, average DAR 2; The conjugation site (C220) is stated only in the summary and embodiments

binding result [8]: no binding (tested: 3 µM top dose)
Kd [9]: 5 nM
koff [9]: 0.00017 s⁻¹
kon [9]: 33000 M⁻¹ s⁻¹
Kd [10]: 420 nM
koff [10]: 0.0012 s⁻¹
kon [10]: 2800 M⁻¹ s⁻¹
EC50 (read off the curve) [7]: ~80 nM
B2: AM2 antibody (antibody, human IgG1, kappa, L234A L235A, V domains shown)
VH: B1 VH
VL: B1 VL
notes: Humanized IgG1, z,a allotype, with the LALA mutation (L234A, L235A) and LC:C214A (C6v1); Expressed in HEK293 cells; also called EGFR AM2 antibody
